Source: patent US20190315842A1 (DUKE UNIVERSITY, published 2019)
Where no end group is shown, it is not given here. The star is where a group is joined. Biotin = O=C1N[C@H]2[C@H](CS[C@H]2CCCCC(=O)*)N1

Tests used:
[1] = biological target: systemic lupus erythematosus autoantigen SSA; assay: AtheNA Multi-Lyte ANA, Ab at 2.088 ug/ml
[2] = biological target: ribonucleoprotein (RNP); assay: AtheNA Multi-Lyte ANA, Ab at 2.088 ug/ml
[3] = biological target: T1, Sm (sphingomyelin); assay: AtheNA Multi-Lyte ANA, Ab at 2.088 ug/ml
T1 construct: in an ANA panel of nuclear antigens Sm is usually the Smith ribonucleoprotein antigen; Kept, but see recheck

[4] = biological target: T2, GPPPPIDNGDITSFP(GGGK-biotin); assay: ELISA: biotinylated peptide captured on immobilized Neutravidin, antibody at 0.5 µg/ml, anti-human IgG-HRP/ABTS, OD 405 nm
T2 construct: also called biotinylated 15-mer peptide; biotinylated 19-mer
T2 peptide: GPPPPIDNGDITSFPGGGK(Biotin)

[5] = biological target: T3, Complement Factor H (CFH) protein, full-length (human, UniProt P08603 19-1231); assay: immunoblot, SDS-PAGE under non-reducing conditions, antibody at 0.5 µg/ml, anti-human IgG-HRP, chemiluminescence; lane numbers as in Table 10
T3 construct: also called full-length CFH; native CFH

[6] = biological target: T4, 15-mer peptide GPPPPIDNGDITSFP (SEQ ID NO: 114) (human); assay: assay and antigen not given; Example 10, epitope mapping on the 15-mer peptide
T4 construct: Immobilized for SPR; also called parent peptide
T4 peptide: GPPPPIDNGDITSFP

[7] = biological target: systemic lupus erythematosus autoantigen SSA; assay: AtheNA Multi-Lyte ANA, Ab at 4.175 ug/ml
[8] = biological target: ribonucleoprotein (RNP); assay: AtheNA Multi-Lyte ANA, Ab at 4.175 ug/ml
[9] = biological target: T1, Sm (sphingomyelin); assay: AtheNA Multi-Lyte ANA, Ab at 4.175 ug/ml
[10] = biological target: T5, reduced form of Complement Factor H (CFH), treated with TCEP (human, UniProt P08603 19-1231, disulfides reduced with 10 mM TCEP); assay: immunoblot, SDS-PAGE under reducing conditions, antibody at 0.5 µg/ml, anti-human IgG-HRP, chemiluminescence; lane numbers as in Table 10
T5 construct: also called reduced CFH; reduced form of CFH

[11] = biological target: systemic lupus erythematosus autoantigen SSA; assay: AtheNA Multi-Lyte ANA, Ab at 8.35 ug/ml
[12] = biological target: ribonucleoprotein (RNP); assay: AtheNA Multi-Lyte ANA, Ab at 8.35 ug/ml
[13] = biological target: T1, Sm (sphingomyelin); assay: AtheNA Multi-Lyte ANA, Ab at 8.35 ug/ml
[14] = biological target: systemic lupus erythematosus autoantigen SSA; assay: AtheNA Multi-Lyte ANA, Ab at 16.7 ug/ml
[15] = biological target: ribonucleoprotein (RNP); assay: AtheNA Multi-Lyte ANA, Ab at 16.7 ug/ml
[16] = biological target: T1, Sm (sphingomyelin); assay: AtheNA Multi-Lyte ANA, Ab at 16.7 ug/ml
[17] = biological target: systemic lupus erythematosus autoantigen SSA; assay: AtheNA Multi-Lyte ANA, Ab at 12.5 ug/ml;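 note: monoclonal antibodies screened for binding to a panel of nuclear autoantigens (SSA, SSB, Sm, RNP, Scl-70, Jo-1, dsDNA, CentB, histones), with anti-HIV and anti-RSV antibodies as controls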
[18] = biological target: T6, sclerosis autoantigen (Scl-70) (UniProt P11387 2-765, limits assumed); assay: AtheNA Multi-Lyte ANA, Ab at 12.5 ug/ml;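 note: monoclonal antibodies screened for binding to a panel of nuclear autoantigens (SSA, SSB, Sm, RNP, Scl-70, Jo-1, dsDNA, CentB, histones), with anti-HIV and anti-RSV antibodies as controls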
T6 sequence (looked up): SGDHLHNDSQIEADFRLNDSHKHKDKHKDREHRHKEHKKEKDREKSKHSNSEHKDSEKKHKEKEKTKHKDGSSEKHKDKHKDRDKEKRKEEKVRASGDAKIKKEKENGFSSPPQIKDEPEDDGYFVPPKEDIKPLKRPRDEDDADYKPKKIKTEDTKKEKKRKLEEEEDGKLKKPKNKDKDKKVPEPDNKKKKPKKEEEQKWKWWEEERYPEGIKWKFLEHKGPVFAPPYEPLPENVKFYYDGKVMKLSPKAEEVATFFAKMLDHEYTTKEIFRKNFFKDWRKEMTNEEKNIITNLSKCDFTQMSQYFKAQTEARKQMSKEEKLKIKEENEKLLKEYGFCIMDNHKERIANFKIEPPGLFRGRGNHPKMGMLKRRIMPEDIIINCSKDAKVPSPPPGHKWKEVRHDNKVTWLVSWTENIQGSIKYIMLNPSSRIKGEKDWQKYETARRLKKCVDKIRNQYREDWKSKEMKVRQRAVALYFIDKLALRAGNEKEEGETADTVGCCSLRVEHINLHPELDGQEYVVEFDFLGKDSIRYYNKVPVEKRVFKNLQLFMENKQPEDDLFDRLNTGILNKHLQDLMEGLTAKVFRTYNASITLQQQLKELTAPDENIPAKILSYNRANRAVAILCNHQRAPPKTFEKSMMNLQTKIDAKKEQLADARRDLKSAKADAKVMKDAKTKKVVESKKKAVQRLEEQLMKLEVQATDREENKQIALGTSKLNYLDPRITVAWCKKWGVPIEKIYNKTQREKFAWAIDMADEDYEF

[19] = biological target: T7, systemic lupus erythematosus autoantigen SSB (UniProt P05455 1-408, limits assumed); assay: AtheNA Multi-Lyte ANA, Ab at 12.5 ug/ml;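 note: monoclonal antibodies screened for binding to a panel of nuclear autoantigens (SSA, SSB, Sm, RNP, Scl-70, Jo-1, dsDNA, CentB, histones), with anti-HIV and anti-RSV antibodies as controls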
T7 sequence (looked up): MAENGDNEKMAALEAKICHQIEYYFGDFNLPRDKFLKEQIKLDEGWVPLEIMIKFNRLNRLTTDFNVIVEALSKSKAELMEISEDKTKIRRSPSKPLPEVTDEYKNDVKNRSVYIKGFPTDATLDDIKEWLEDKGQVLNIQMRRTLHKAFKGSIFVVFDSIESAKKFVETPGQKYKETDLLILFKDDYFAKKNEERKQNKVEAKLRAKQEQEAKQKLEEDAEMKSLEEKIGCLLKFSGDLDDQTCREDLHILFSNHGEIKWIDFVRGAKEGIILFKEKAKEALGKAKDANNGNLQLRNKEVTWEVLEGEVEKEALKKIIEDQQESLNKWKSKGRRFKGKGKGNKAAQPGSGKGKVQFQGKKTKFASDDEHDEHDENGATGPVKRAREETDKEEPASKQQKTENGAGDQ

[20] = biological target: ribonucleoprotein (RNP); assay: AtheNA Multi-Lyte ANA, Ab at 12.5 ug/ml;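 note: monoclonal antibodies screened for binding to a panel of nuclear autoantigens (SSA, SSB, Sm, RNP, Scl-70, Jo-1, dsDNA, CentB, histones), with anti-HIV and anti-RSV antibodies as controls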
[21] = biological target: T1, Sm (sphingomyelin); assay: AtheNA Multi-Lyte ANA, Ab at 12.5 ug/ml
[22] = biological target: T8, histidine-tRNA ligase (Jo-1) (UniProt P12081 2-509); assay: AtheNA Multi-Lyte ANA, Ab at 12.5 ug/ml
T8 sequence (looked up): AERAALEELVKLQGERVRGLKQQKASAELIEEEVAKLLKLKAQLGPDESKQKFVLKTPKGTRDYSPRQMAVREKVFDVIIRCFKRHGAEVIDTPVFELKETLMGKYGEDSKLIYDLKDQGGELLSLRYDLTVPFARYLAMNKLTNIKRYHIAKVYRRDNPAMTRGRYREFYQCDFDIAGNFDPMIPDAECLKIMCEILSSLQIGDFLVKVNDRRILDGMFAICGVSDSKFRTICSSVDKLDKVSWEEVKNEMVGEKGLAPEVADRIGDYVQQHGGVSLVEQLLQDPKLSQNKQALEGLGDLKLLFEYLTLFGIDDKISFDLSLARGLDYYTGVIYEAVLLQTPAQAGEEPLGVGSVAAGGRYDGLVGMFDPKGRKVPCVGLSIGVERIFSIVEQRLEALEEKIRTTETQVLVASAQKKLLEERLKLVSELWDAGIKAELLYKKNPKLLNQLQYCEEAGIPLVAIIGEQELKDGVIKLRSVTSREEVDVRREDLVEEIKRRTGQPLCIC

[23] = biological target: systemic lupus erythematosus autoantigen SSA; assay: AtheNA Multi-Lyte ANA, Ab at 6.25 ug/ml;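 note: monoclonal antibodies screened for reactivity against a panel of nuclear autoantigens, with an anti-HIV and an anti-RSV monoclonal antibody serving as controls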
[24] = biological target: T6, sclerosis autoantigen (Scl-70); assay: AtheNA Multi-Lyte ANA, Ab at 6.25 ug/ml;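 note: monoclonal antibodies screened for reactivity against a panel of nuclear autoantigens, with an anti-HIV and an anti-RSV monoclonal antibody serving as controls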
[25] = biological target: T7, systemic lupus erythematosus …; assay: AtheNA Multi-Lyte ANA, Ab at 6.25 ug/ml;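 note: monoclonal antibodies screened for reactivity against a panel of nuclear autoantigens, with an anti-HIV and an anti-RSV monoclonal antibody serving as controls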
[26] = biological target: ribonucleoprotein (RNP); assay: AtheNA Multi-Lyte ANA, Ab at 6.25 ug/ml;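 note: monoclonal antibodies screened for reactivity against a panel of nuclear autoantigens, with an anti-HIV and an anti-RSV monoclonal antibody serving as controls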
[27] = biological target: T1, Sm (sphingomyelin); assay: AtheNA Multi-Lyte ANA, Ab at 6.25 ug/ml
[28] = biological target: T8, histidine-tRNA ligase (Jo-1); assay: AtheNA Multi-Lyte ANA, Ab at 6.25 ug/ml
[29] = biological target: systemic lupus erythematosus autoantigen SSA; assay: AtheNA Multi-Lyte ANA, Ab at 50 ug/ml;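 note: monoclonal antibodies probed against a nuclear autoantigen panel (SSA, SSB, Sm, RNP, Scl-70, Jo-1, dsDNA, CentB, histones), with anti-HIV 4E10 and palivizumab as control antibodies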
[30] = biological target: T6, sclerosis autoantigen (Scl-70); assay: AtheNA Multi-Lyte ANA, Ab at 50 ug/ml;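 note: monoclonal antibodies probed against a nuclear autoantigen panel (SSA, SSB, Sm, RNP, Scl-70, Jo-1, dsDNA, CentB, histones), with anti-HIV 4E10 and palivizumab as control antibodies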
[31] = biological target: T7, systemic lupus erythematosus …; assay: AtheNA Multi-Lyte ANA, Ab at 50 ug/ml;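 note: monoclonal antibodies probed against a nuclear autoantigen panel (SSA, SSB, Sm, RNP, Scl-70, Jo-1, dsDNA, CentB, histones), with anti-HIV 4E10 and palivizumab as control antibodies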
[32] = biological target: ribonucleoprotein (RNP); assay: AtheNA Multi-Lyte ANA, Ab at 50 ug/ml;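 note: monoclonal antibodies probed against a nuclear autoantigen panel (SSA, SSB, Sm, RNP, Scl-70, Jo-1, dsDNA, CentB, histones), with anti-HIV 4E10 and palivizumab as control antibodies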
[33] = biological target: T1, Sm (sphingomyelin); assay: AtheNA Multi-Lyte ANA, Ab at 50 ug/ml
[34] = biological target: T8, histidine-tRNA ligase (Jo-1); assay: AtheNA Multi-Lyte ANA, Ab at 50 ug/ml
[35] = biological target: systemic lupus erythematosus autoantigen SSA; assay: AtheNA Multi-Lyte ANA, Ab at 28.3 ug/ml
[36] = biological target: ribonucleoprotein (RNP); assay: AtheNA Multi-Lyte ANA, Ab at 28.3 ug/ml
[37] = biological target: T1, Sm (sphingomyelin); assay: AtheNA Multi-Lyte ANA, Ab at 28.3 ug/ml
[38] = biological target: systemic lupus erythematosus autoantigen SSA; assay: AtheNA Multi-Lyte ANA, Ab at 3.538 ug/ml
[39] = biological target: ribonucleoprotein (RNP); assay: AtheNA Multi-Lyte ANA, Ab at 3.538 ug/ml
[40] = biological target: T1, Sm (sphingomyelin); assay: AtheNA Multi-Lyte ANA, Ab at 3.538 ug/ml
[41] = biological target: systemic lupus erythematosus autoantigen SSA; assay: AtheNA Multi-Lyte ANA, Ab at 7.075 ug/ml
[42] = biological target: ribonucleoprotein (RNP); assay: AtheNA Multi-Lyte ANA, Ab at 7.075 ug/ml
[43] = biological target: T1, Sm (sphingomyelin); assay: AtheNA Multi-Lyte ANA, Ab at 7.075 ug/ml

T3 sequence (P08603 19-1231 limits assumed): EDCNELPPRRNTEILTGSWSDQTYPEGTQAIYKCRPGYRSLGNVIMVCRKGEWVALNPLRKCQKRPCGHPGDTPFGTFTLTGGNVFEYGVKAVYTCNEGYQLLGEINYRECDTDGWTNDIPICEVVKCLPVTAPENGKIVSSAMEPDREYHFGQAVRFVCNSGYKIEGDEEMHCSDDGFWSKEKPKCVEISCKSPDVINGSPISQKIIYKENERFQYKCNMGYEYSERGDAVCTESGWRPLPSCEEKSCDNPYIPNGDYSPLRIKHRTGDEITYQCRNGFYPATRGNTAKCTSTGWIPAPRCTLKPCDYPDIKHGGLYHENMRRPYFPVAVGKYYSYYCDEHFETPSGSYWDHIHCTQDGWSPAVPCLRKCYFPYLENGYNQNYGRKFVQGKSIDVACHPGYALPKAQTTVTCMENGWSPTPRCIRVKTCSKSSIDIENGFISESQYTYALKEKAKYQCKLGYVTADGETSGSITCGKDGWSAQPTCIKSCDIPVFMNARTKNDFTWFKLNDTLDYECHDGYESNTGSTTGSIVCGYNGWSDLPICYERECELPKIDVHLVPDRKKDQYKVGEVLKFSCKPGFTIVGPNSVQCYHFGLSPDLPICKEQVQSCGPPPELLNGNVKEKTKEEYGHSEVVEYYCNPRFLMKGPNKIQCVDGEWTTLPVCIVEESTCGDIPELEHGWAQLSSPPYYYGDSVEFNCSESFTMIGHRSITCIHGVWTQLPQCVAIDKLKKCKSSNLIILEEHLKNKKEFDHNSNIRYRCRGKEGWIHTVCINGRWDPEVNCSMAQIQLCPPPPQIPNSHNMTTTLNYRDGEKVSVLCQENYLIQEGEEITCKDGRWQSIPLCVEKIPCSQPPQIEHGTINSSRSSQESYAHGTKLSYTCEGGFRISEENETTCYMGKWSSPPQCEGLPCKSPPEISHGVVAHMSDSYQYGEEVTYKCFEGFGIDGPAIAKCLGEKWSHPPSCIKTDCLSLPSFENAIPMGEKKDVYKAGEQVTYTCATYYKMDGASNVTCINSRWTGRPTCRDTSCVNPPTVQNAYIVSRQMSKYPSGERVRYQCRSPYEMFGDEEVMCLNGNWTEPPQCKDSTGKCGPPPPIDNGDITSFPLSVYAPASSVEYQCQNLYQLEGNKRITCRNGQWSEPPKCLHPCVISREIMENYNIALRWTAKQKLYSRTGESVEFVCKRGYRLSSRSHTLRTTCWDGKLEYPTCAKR
T5 sequence (P08603 19-1231 limits assumed): as above

B1: Ab7979 (antibody, IgG1, V domains shown)
VH: LVESGGGVVQPGKSLRLSCVASGFTFSTYGMHWVRQAPGKGLEWVAVMSFDGKTKYYADSVKGRFTISRDNPKNTLYLQMNSLRSEDTAVYYCAKGGAAAAVFDSWGQGILLTVSS
VL: MTQSPNSLAVSLGGRATINCKTSQSILYRSNNKNYLAWYQHKPGQPPKLLIYWASTRESRVPDRFSGSGSRTDFTLTISGLQAEDVAVYYCQQYYNPPWTFGQGTKVEIK
notes: Recombinant human antibody with IgG1 heavy chain backbone and kappa light chain constant; they begin at LVESGGG and MTQSP; also called Ab7979/239i; mAb 7979
[1]
  AtheNA signal: 119
[2]
  AtheNA signal: 29
[3]
  AtheNA signal: 45
[4]
  binding result: binds
[5]
  binding result: binds
[6]
  EC50: 0.0122 µg/mL
[7]
  AtheNA signal: 140
[8]
  AtheNA signal: 36
[9]
  AtheNA signal: 63
[10]
  binding result: binds
[11]
  AtheNA signal: 146
[12]
  AtheNA signal: 38
[13]
  AtheNA signal: 77
[14]
  AtheNA signal: 144
[15]
  AtheNA signal: 40
[16]
  AtheNA signal: 92

B2: Ab7960/293i (antibody, IgG1, V domains shown)
VH: LVESGGGVVQPGKSLRLSCVASGFSFSTYGMHWVRQAPGKGLEWVAVMSFDGKTKYYADSVKGRFTISRDNPKNTLYLQMNSLRSEDTAVYYCAKGGAAAAVFDSWGPGILLTVSS
VL: MTQSPNSLAVSLGGRATINCKASQSILYRSNNKNYLAWYQHKAGQPPKLLIYWASTRESGVPERFSGSGSRTDFTLTINGLQAEDVAVYYCQQYYNPPWTFGQGTKVEIK
notes: Recombinant human antibody with IgG1 heavy chain backbone and kappa light chain constant; they begin at LVESGGG and MTQSP; also called mAb 7960; mAb7960
[17]
  AtheNA signal: 4
[18]
  AtheNA signal: 3
[19]
  AtheNA signal: 8
[20]
  AtheNA signal: 3
[21]
  AtheNA signal: 4
[22]
  AtheNA signal: 4
[4]
  binding result: binds
[5]
  binding result: binds
[6]
  EC50: 0.00782 µg/mL
[10]
  binding result: binds
[23]
  AtheNA signal: 2
[24]
  AtheNA signal: 1
[25]
  AtheNA signal: 7
[26]
  AtheNA signal: 2
[27]
  AtheNA signal: 2
[28]
  AtheNA signal: 2
[29]
  AtheNA signal: 6
[30]
  AtheNA signal: 3
[31]
  AtheNA signal: 8
[32]
  AtheNA signal: 4
[33]
  AtheNA signal: 2
[34]
  AtheNA signal: 5

B3: Ab7970 (antibody, IgG1, V domains shown)
VH: LVESGGGVVQPGRSLRLSCAASGLTFSFYNFHWVRQTPGKGLEWVAGISYDATRTNYAGSVTGRFTISRDNSKKMLYLQMSSLGPQDTAVYHCARDRSDGQLHKVAFDSWGQGALVTVSS
VL: MTQSPDSLTLSLGERATINCRSSRTVLYRSNNKNYLAWYQHKPGQPPKLLMSWASTRETGVPDRFSGSGSGTHFTLTITSLQPEDVAVYYCQQYYSPPWTFGQGTKVEIR
notes: IgG1 heavy chain backbone and kappa constant; also called clone 18; pH007970/pK005991_6004
[4]
  binding result: binds
[35]
  AtheNA signal: 165
[36]
  AtheNA signal: 56
[37]
  AtheNA signal: 22
[38]
  AtheNA signal: 84
[39]
  AtheNA signal: 34
[40]
  AtheNA signal: 10
[41]
  AtheNA signal: 120
[42]
  AtheNA signal: 44
[43]
  AtheNA signal: 12
